Results taken from publication PMC9922296, “Mechanistic insights into RNA surveillance by the canonical poly(A) polymerase Pla1 of the MTREC complex” (Nature Communications, 2023).

B1: C-terminal RRM domain of Pla1 (Pla1RRM, residues 352-566), purified [S. pombe] / Red1 residues 288-345 (Pla1 interaction region), purified [S. pombe] (parent)
chain 1: ISLPLLKQDDWLSSSKPFGSSTPNVVIEFDSDDDGDDFSNSKIEQSNLEKPPSNSENG
chain 2: DFFHRYKHYLTITAAAKTAEAQLKWAGLVESKLRHLVTRLELVDAIALAHPFNKGFDKVYNCSSEEEAQQVASGVTLEVAYESTDHEKLANDTVNEEKADNTESKADGSENGEKQIFPVYTTTCYIGLELEKKKGHPIKRLDISWPTQEFYELCKKWDKYDDTLMNVFIKNTKNTALPDEVFEPGEERPKATKKRSTADTAHSTEQLKRQKVSTA

Variants of: B1
Test: ITC
Details: with Red1 residues 288-345 (Pla1 interaction region)

| Kd [µM] | Variant |
| --- | --- |
| 17.8 | chain 2 K17E |
| 2.8 | chain 2 K208E R209E K211E |

Same assay, conditions: with C-terminal RRM domain of Pla1 (Pla1RRM, residues 352-566)

| Kd [µM] | Variant |
| --- | --- |
| 17.9 | chain 1 V26R |
